In PMC9712106:

Columns and labels:
[1] = target: PfPTRAMP (42-309) with a C-terminal Avitag, biotinylated (Plasmodium falciparum); test: BLI; biotinylated PfPTRAMP or PTRAMP-CSS immobilised on High Precision Streptavidin (SAX) biosensors; twofold dilution series of anti-PfPTRAMP nanobody; 25 °C; kinetics buffer (PBS pH 7.4, 0.1% BSA, 0.02% Tween-20); 1:1 model; mean of two independent experiments
[2] = target: biotinylated PTRAMP-CSS heterodimer: PfPTRAMP (42-309) with C-terminal Avitag, with PfCSS (20-290) (Plasmodium falciparum); test: as above

B1: anti-PfPTRAMP nanobody H10 (VHH)
VHH: QVQLQESGGGLVQPGGSLRLSCAASGFTFDNYWMYWVRQAPGKGLEWVSAINTVGSHTYYADSVKGRFTISRDNAKNTLYLQMNSLKSEDTAVYYCAKGPWGFGTSGWGEMDYWGKGTQVTVSS
Question: What does the source list for B1?
Answer: Kd [1]: 0.53 µM; koff [1]: 0.088 s⁻¹; kon [1]: 170000 M⁻¹ s⁻¹; Kd [2]: 0.39 µM; koff [2]: 0.077 s⁻¹; kon [2]: 200000 M⁻¹ s⁻¹

B2: anti-PfPTRAMP nanobody H8 (VHH)
VHH: QVQLQESGGGLVQPGGSLRLSCAASGFTFSSYWMYWVRQAPGKGLEWVSAINTGGGSTAYADSVKGRFTISRDNAKNTLYLQMNSLKSDDTAVYYCVKARGSSWSDRVFDYWGQGTQVTVSS
Question: Which results are given for B2?
Answer: Kd [1]: 0.4 µM; koff [1]: 0.25 s⁻¹; kon [1]: 620000 M⁻¹ s⁻¹; Kd [2]: 0.41 µM; koff [2]: 0.25 s⁻¹; kon [2]: 790000 M⁻¹ s⁻¹
